Test [1] deals with T1, Hepcidin-25 containing a C-terminal biotin group (human, C-terminal biotin group).
T1 construct: also called Hepcidin-25-C-bio; biotinylated hepcidin
T1 peptide: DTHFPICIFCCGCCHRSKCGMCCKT
Description: solution competition ECL assay: 25 pM Hepcidin-25-C-bio pre-incubated with the conjugate, remaining free Hepcidin-25-C-bio captured on plate-coated antibody 12B9; STDV 14 pM, mean of n=5. How it is done: (§1) The binding affinity of the hNGAL mutein having the sequence of SEQ ID NO: 2 was compared to the binding affinity of the hNGAL mutein having the sequence of SEQ ID NO: 1 linked to PEG12, PEG20, PEG30 or PEG40 in a solution competition electrochemiluminescence (ECL) assay. A defined molar concentration of Hepcidin-25 containing a C-terminal biotin group (25 pM, Hepcidin-25-C-bio) was incubated with different concentrations of the lipocalin muteins for 30 min. at room temperature. The solution was then transferred to an ECL plate coated with the human hepcidin specific monoclonal antibody 12B9 as described herein (and disclosed in WO2008/097461) to measure the remaining concentration of free Hepcidin-25-C-bio in the solution. 12B9-bound Hepcidin-25-C-bio was detected via the Streptavidin sulfotag detection reagent on the Meso-Scale ECL platform and the concentration determined via a Hepcidin-25-C-bio standard curve. […] The assay, for example, was able to distinguish the binding affinity of one lipocalin mutein (SEQ ID NO: 2) from the binding affinity of another lipocalin mutein (SEQ ID NO: 3). Furthermore, it allowed a direct comparison of different high affinities of the lipocalin muteins as well as conjugates having PEG chains of different length.

In test [2] the target is T2, Cynomolgus hepcidin 25 (Cynomolgus monkey, UniProt A7XEI3 60-84, not fully specified).
T2 construct: mature; also called Cynomolgous hepcidin 25
T2 peptide: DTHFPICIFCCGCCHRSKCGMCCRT
Description: surface plasmon resonance (Biacore), cynomolgus hepcidin 25 as analyte, tested side by side with Hepcidin-25 in the same assay format; N=3.

In test [3] the target is T3, HSA (Sigma Life sciences, A1653) (human, UniProt P02768 25-609).
T3 construct: Printed only as the abbreviation HSA
T3 sequence (P02768 25-609): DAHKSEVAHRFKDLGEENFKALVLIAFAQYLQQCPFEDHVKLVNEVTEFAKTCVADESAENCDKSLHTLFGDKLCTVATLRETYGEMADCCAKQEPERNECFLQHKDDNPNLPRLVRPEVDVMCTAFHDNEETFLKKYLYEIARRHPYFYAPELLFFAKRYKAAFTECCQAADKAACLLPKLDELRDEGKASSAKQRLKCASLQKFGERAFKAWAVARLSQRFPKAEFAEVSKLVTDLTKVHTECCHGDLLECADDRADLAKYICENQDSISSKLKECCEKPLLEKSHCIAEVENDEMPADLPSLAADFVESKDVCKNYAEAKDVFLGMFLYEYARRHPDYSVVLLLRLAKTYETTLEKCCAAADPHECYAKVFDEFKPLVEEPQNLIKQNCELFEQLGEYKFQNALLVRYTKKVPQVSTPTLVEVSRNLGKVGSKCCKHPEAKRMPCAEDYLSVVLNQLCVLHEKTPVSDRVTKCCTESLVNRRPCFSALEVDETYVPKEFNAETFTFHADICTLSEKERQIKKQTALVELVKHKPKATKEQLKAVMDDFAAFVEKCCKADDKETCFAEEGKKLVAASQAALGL
Description: SPR (Biacore T200), mutein immobilized on CM5 chip, analyte in solution. How it is done:
(§2) The affinity and binding specificity of a lipocalin mutein was determined in a kinetic assay using surface plasmon resonance. The hepcidin-specific lipocalin mutein having the sequence of SEQ ID NO: 1 and the hNGAL lipocalin having the sequence of SEQ ID NO: 4 were immobilized to a level of 750-1100 resonance units (RU) on a CM5 sensor chip (GE Healthcare, BR-1005-30) using an amine coupling kit (GE Healthcare, BR-1000-50). Residual activated groups were saturated with ethanolamine. The reference channels were treated with EDC/NHS following ethanolamine (blank immobilization). Dilutions of Hepcidin-25 (Peptallova), Fe-enterobactin (Genaxxon Bioscience, S4035.0001), ß-defensin (Sigma Aldrich, D9565), VEGF₈₋₁₀₉ (Pieris, truncated VEGF) and HSA (Sigma Life sciences, A1653) in HBS-EP+ buffer (GE Healthcare, BR-1006-69) were applied to the prepared chip surfaces. The following parameters were used for the binding assay: contact time 60 s, dissociation time 600 s, flow rate 30 μL/min. All measurements were performed on a Biacore T200 instrument (GE Healthcare) at 25° C. […] Prior to the protein measurements three startup cycles were performed for conditioning purposes. Data were evaluated with Biacore T200 Evaluation software (V 1.0). Double referencing was used. The 1:1 Binding model was used to fit the raw data. No binding to the reference channel was detected for all of the targets. […] The bacterial siderophor Fe-enterobactin was selected for this analysis as it constitutes one of the natural ligands of the lipocalin that the lipocalin mutein was derived from.
For orientation: SPR reads the build-up and loss of mass on a sensor chip optically.

Test [4] deals with T4, VEGF8-109 (Pieris, truncated VEGF) (UniProt P15692 214-315).
T4 construct: range 8-109; By custom it is counted on mature VEGF-A, not on the precursor
T4 sequence (looked up): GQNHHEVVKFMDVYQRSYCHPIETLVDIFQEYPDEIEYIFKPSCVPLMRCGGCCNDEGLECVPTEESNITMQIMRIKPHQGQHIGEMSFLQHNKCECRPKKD
Described as above. How it is done:
as §2

In test [5] the target is T5, ß-defensin (Sigma Aldrich, D9565) (UniProt P60022 33-68).
T5 construct: also called mammalian antimicrobial 36 amino acid peptide ß-defensin
T5 peptide (looked up): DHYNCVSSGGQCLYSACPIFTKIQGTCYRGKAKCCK
Described as above. The procedure: as §2

Test [6] deals with T6, Hepcidin-25 (human).
T6 construct: also called Hepc25; mature form of human hepcidin
T6 peptide: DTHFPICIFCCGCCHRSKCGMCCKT
The experiment in a line: surface plasmon resonance (Biacore T200, 25 °C), mutein amine-coupled to a CM5 chip, Hepcidin-25 as analyte, 1:1 binding model; N=6.

The target in test [7] is T6, Hepcidin-25. Description: surface plasmon resonance (Biacore), Hepcidin-25 as analyte, tested side by side with cynomolgus hepcidin 25 in the same assay format; N=3.
The target in test [8] is T1, Hepcidin-25 containing a C-terminal …. The experiment in a line: solution competition ECL assay: 25 pM Hepcidin-25-C-bio pre-incubated with the conjugate, remaining free Hepcidin-25-C-bio captured on plate-coated antibody 12B9; STDV 11 pM, mean of n=5. How it is done: as §1
Test [9] has as its target T2, Cynomolgus hepcidin 25. The experiment in a line: surface plasmon resonance.
The target in test [10] is T1, Hepcidin-25 containing a C-terminal …. Description: solution competition ECL assay: 25 pM Hepcidin-25-C-bio pre-incubated with the conjugate, remaining free Hepcidin-25-C-bio captured on plate-coated antibody 12B9; STDV 10 pM, mean of n=5. The procedure:
as §1

Test [11] has the same target. The experiment in a line: solution competition ECL assay: 25 pM Hepcidin-25-C-bio pre-incubated with the conjugate, remaining free Hepcidin-25-C-bio captured on plate-coated antibody 12B9; STDV 6 pM, mean of n=6. How it is done:
as §1

Test [12] shares this target. Description: solution competition ECL assay: 25 pM Hepcidin-25-C-bio pre-incubated with the mutein, remaining free Hepcidin-25-C-bio captured on plate-coated antibody 12B9; STDV 23 pM, mean of n=6. How it is done:
as §1

Test [13] addresses T6, Hepcidin-25. The experiment in a line: SPR (Biacore T200), hNGAL immobilized on CM5 chip, analyte in solution. The procedure: (§3) The reference channels were treated with EDC/NHS following ethanolamine (blank immobilization). Dilutions of Hepcidin-25 (Peptallova), Fe-enterobactin (Genaxxon Bioscience, S4035.0001), ß-defensin (Sigma Aldrich, D9565), VEGF₈₋₁₀₉ (Pieris, truncated VEGF) and HSA (Sigma Life sciences, A1653) in HBS-EP+ buffer (GE Healthcare, BR-1006-69) were applied to the prepared chip surfaces. The following parameters were used for the binding assay: contact time 60 s, dissociation time 600 s, flow rate 30 μL/min. All measurements were performed on a Biacore T200 instrument (GE Healthcare) at 25° C. […] Prior to the protein measurements three startup cycles were performed for conditioning purposes. Data were evaluated with Biacore T200 Evaluation software (V 1.0). Double referencing was used. The 1:1 Binding model was used to fit the raw data. No binding to the reference channel was detected for all of the targets. […] The bacterial siderophor Fe-enterobactin was selected for this analysis as it constitutes one of the natural ligands of the lipocalin that the lipocalin mutein was derived from. […] HSA and VEGF were used as example of non-related proteins. The hNGAL lipocalin, immobilized in an identical fashion on a CM5 chip compared to the lipocalin mutein was used as positive control for the Fe-enterobactin analyte. As described in the literature, the hNGAL lipocalin bound Fe-enterobactin with subnanomolar affinity, whereas none of the other analytes including hepcidin were bound.

Test [14] has as its target T3, HSA (Sigma Life sciences, A1653). Described as above. The procedure: as §3
Test [15] deals with T4, VEGF8-109 (Pieris, truncated VEGF). The test is described as above. How it is done: as §3
The target of test [16] is T5, ß-defensin (Sigma Aldrich, D9565). Described as above. The procedure:
as §3

B1: hNGAL mutein having the sequence of SEQ ID NO: 1 linked to PEG12 (designed binder)
chain: QDSTSDLIPAPPLSKVPLQQNFQDNQFHGKWYVVGLAGNEVLREDKDPMKMWATIYELKEDKSYNVTIVMPLAEKCEYLFQTFVPGCQPGEFTLGGIKSGPGRTSGLVRVVSTNYNQHAMVFFKVVWQNREVFWVTLYGRTKELTSELKENFIRFSKSLGLPENHIVFPVPIDQCIDG
modifications: linear PEG12 (PEG-maleimide) on the free Cys at position 87
notes: also called PEG12 conjugate
For orientation: IC50 means the concentration at which inhibition is half-maximal. Read a low IC50 as greater potency in that assay. Regarding B1, in test [1], the IC50 was determined as 0.048 nM.

B2: hepcidin-specific lipocalin mutein (hNGAL mutein) having the sequence of SEQ ID NO: 1 (designed binder)
chain: QDSTSDLIPAPPLSKVPLQQNFQDNQFHGKWYVVGLAGNEVLREDKDPMKMWATIYELKEDKSYNVTIVMPLAEKCEYLFQTFVPGCQPGEFTLGGIKSGPGRTSGLVRVVSTNYNQHAMVFFKVVWQNREVFWVTLYGRTKELTSELKENFIRFSKSLGLPENHIVFPVPIDQCIDG
notes: also called the lipocalin mutein; hNGAL mutein having a free cysteine residue at amino acid position 87
By Kd is commonly meant the free concentration of one partner at which half of the binding sites on the other are occupied at equilibrium, for simple one-to-one binding. For orientation: koff means a measure of how fast the partners let go of each other. By kon is commonly meant a measure of how fast the partners come together. The low end stands for slower complex formation, the high end for faster complex formation. Consider B2, for which the dissociation constant (Kd) with Cynomolgus hepcidin 25 [2] is 0.07 nM; with Hepcidin-25 [6], 0.07 nM; in the test with Hepcidin-25 [7] it was 0.1 nM. The binding result in [3], in [4] and in [5] was “no binding” in each case. Also, the koff in the test with Hepcidin-25 [6] stood at 0.0002 s⁻¹. The kon in the test with Hepcidin-25 [6] is 3.8e+06 M⁻¹ s⁻¹.

B3: hNGAL mutein having the sequence of SEQ ID NO: 1 linked to PEG20 (designed binder)
chain: QDSTSDLIPAPPLSKVPLQQNFQDNQFHGKWYVVGLAGNEVLREDKDPMKMWATIYELKEDKSYNVTIVMPLAEKCEYLFQTFVPGCQPGEFTLGGIKSGPGRTSGLVRVVSTNYNQHAMVFFKVVWQNREVFWVTLYGRTKELTSELKENFIRFSKSLGLPENHIVFPVPIDQCIDG
modifications: linear PEG20 (PEG-maleimide) on the free Cys at position 87
notes: also called PEG20 conjugate
In the case of B3, in [8], the IC50 was 0.047 nM.

B4: hNGAL mutein having the sequence of SEQ ID NO: 1 linked to PEG40 (designed binder)
chain: QDSTSDLIPAPPLSKVPLQQNFQDNQFHGKWYVVGLAGNEVLREDKDPMKMWATIYELKEDKSYNVTIVMPLAEKCEYLFQTFVPGCQPGEFTLGGIKSGPGRTSGLVRVVSTNYNQHAMVFFKVVWQNREVFWVTLYGRTKELTSELKENFIRFSKSLGLPENHIVFPVPIDQCIDG
modifications: branched PEG40 (PEG-maleimide) on the free Cys at position 87
notes: also called PEG40 conjugate
In the test with Cynomolgus hepcidin 25 [9], B4 showed a Kd of 0.066 nM, a koff of 0.000245 s⁻¹ and a kon of 3.74e+06 M⁻¹ s⁻¹. Further, the IC50 in test [10] came out at 0.054 nM.

B5: hNGAL mutein having the sequence of SEQ ID NO: 1 linked to PEG30 (designed binder)
chain: QDSTSDLIPAPPLSKVPLQQNFQDNQFHGKWYVVGLAGNEVLREDKDPMKMWATIYELKEDKSYNVTIVMPLAEKCEYLFQTFVPGCQPGEFTLGGIKSGPGRTSGLVRVVSTNYNQHAMVFFKVVWQNREVFWVTLYGRTKELTSELKENFIRFSKSLGLPENHIVFPVPIDQCIDG
modifications: linear PEG30 (PEG-maleimide) on the free Cys at position 87
notes: also called PEG30 conjugate; lipocalin-mutein-PEG30 conjugate
For B5, in test [11], the IC50 worked out at 0.058 nM. In addition, the Kd in the test with Cynomolgus hepcidin 25 [9] was determined as 0.066 nM.

B6: hNGAL mutein having the sequence of SEQ ID NO: 2 (designed binder)
chain: QDSTSDLIPAPPLSKVPLQQNFQDNQFHGKWYVVGLAGNEVLREDKDPMKMWATIYELKEDKSYNVTIVMPLAEKCEYLFQTFVPGSQPGEFTLGGIKSGPGRTSGLVRVVSTNYNQHAMVFFKVVWQNREVFWVTLYGRTKELTSELKENFIRFSKSLGLPENHIVFPVPIDQCIDG
notes: Non-PEGylated mutein with serine at position 87
In the case of B6, in [12], the half-inhibitory concentration (IC50) turned out to be 0.056 nM.

B7: hNGAL lipocalin having the sequence of SEQ ID NO: 4 (other)
chain: QDSTSDLIPAPPLSKVPLQQNFQDNQFHGKWYVVGLAGNAILREDKDPQKMYATIYELKEDKSYNVTSVLFRKKKCDYWIRTFVPGSQPGEFTLGNIKSYPGLTSYLVRVVSTNYNQHAMVFFKKVSQNREYFKITLYGRTKELTSELKENFIRFSKSLGLPENHIVFPVPIDQCIDG
notes: also called human neutrophil gelatinase-associated lipocalin; lipocalin 2
For the molecule B7, the binding result (with Hepcidin-25 [13]; in test [14]; in [15]; in test [16]) was “no binding” in each case.

The record behind these values is US20180311311A1 (Pieris, published 2018).
